Data on 19 molecules can be found in patent publication US20030068675, “Position dependent recognition of GNN nucleotide triplets by zinc fingers” (published 2003).

What all share (experiment): EMSA
Common to all, as to conditions: tags: MBP fusion
Background: In EMSA bound probe runs differently from free probe, usually more slowly.

The target in one series is T1, ZFP SBS#1213 (synthetic).
T1 chain: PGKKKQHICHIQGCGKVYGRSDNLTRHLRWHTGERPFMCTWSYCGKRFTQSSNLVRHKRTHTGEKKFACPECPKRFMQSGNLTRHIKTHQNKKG
The gist of the method: (§1)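 Purified ZFP was titrated against labeled double-stranded target (1 nM or lower, at least 10-fold below expected Kd) carrying the natural binding site with flanks. Binding buffer was 10 mM Tris pH 7.5, 100 mM KCl, 1 mM MgCl2, 0.1 mM ZnCl2, 5 mM DTT, 10% glycerol, 0.02% BSA, with equilibration for at least 45 min. Bound and free target were separated on a 10% polyacrylamide gel.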

The target in another series is T2, ZFP SBS#1104 (synthetic).
T2 chain: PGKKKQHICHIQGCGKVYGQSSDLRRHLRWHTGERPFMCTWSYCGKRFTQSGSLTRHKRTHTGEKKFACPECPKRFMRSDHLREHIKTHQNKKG
The gist of the method:
as §1

Another series deals with ZFP SBS#1205 (synthetic). The gist of the method:
as §1

The target in a further series is T3, ZFP SBS#1222 (synthetic, UniProt P08047).
T3 chain: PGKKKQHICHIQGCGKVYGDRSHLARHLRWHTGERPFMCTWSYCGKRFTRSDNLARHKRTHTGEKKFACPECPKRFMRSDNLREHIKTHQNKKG
The gist of the method: as §1

The target of a further series is ZFP SBS#1206 (synthetic). The gist of the method:
as §1

A further series deals with ZFP SBS#1107 (synthetic). The gist of the method:
as §1

The next series deals with T4, ZFP SBS#1108 (synthetic).
T4 chain: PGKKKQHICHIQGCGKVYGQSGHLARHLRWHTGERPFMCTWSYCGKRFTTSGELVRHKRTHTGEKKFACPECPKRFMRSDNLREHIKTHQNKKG
The gist of the method: as §1

In another series the target is T5, ZFP SBS#1207 (synthetic).
T5 chain: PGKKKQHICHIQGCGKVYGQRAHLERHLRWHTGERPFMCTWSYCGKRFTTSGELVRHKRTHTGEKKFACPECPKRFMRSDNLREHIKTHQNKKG
The gist of the method: as §1

The next series concerns the target ZFP SBS#1204 (synthetic). The gist of the method: as §1
In the next series the target is ZFP SBS#1203 (synthetic). The gist of the method:
as §1

The next series has as its target T6, ZFP SBS#1199 (synthetic).
T6 chain: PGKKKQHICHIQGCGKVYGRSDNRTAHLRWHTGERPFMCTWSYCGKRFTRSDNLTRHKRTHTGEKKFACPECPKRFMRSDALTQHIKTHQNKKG
The gist of the method:
as §1

In a further series the target is T7, ZFP SBS#1201 (synthetic).
T7 chain: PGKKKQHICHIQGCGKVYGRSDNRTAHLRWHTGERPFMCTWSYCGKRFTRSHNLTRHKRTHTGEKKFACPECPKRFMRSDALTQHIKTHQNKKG
The gist of the method: as §1

In the next series the target is T8, ZFP SBS#1200 (synthetic).
T8 chain: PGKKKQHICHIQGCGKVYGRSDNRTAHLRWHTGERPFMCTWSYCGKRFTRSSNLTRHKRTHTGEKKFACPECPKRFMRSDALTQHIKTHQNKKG
The gist of the method: as §1

The next series concerns the target ZFP SBS#483 (synthetic). The gist of the method:
as §1

Another series deals with T9, ZFP SBS#1194 (synthetic).
T9 chain: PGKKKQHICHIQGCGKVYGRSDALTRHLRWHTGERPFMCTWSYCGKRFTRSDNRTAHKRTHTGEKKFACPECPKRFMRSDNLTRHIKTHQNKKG
The gist of the method: as §1

The target in another series is T10, ZFP SBS#1195 (synthetic).
T10 chain: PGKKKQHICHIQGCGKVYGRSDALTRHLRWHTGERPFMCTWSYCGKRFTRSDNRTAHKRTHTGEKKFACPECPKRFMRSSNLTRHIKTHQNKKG
The gist of the method:
as §1

The next series deals with T11, ZFP SBS#1197 (synthetic).
T11 chain: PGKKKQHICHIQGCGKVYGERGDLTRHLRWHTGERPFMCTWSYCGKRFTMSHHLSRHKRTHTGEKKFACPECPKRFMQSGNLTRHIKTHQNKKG
The gist of the method:
as §1

The target in another series is T12, ZFP SBS#1209 (synthetic).
T12 chain: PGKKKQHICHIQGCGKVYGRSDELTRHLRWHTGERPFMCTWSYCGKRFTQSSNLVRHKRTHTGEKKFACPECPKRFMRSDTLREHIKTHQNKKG
The gist of the method:
as §1

The target of the next series is T13, ZFP SBS#1116 (synthetic).
T13 chain: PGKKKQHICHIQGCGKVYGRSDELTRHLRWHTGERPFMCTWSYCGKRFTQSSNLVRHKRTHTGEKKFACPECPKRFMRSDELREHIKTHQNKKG
The gist of the method: as §1

The target of the next series is ZFP SBS#1218 (synthetic). The gist of the method: as §1
The next series has as its target T14, ZFP SBS#1101 (synthetic).
T14 chain: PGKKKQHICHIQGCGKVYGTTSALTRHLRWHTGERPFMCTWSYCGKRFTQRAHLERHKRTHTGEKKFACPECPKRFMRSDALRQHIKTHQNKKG
The gist of the method:
as §1

The next series concerns the target T15, ZFP SBS#1214 (synthetic).
T15 chain: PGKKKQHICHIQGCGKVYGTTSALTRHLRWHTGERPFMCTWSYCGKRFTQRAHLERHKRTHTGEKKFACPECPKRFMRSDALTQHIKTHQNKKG
The gist of the method:
as §1

A further series concerns the target T16, ZFP SBS#1127 (synthetic).
T16 chain: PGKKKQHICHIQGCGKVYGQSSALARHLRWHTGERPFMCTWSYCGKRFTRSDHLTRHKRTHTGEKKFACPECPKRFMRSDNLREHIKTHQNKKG
The gist of the method: as §1

The target of the next series is T17, ZFP SBS#1212 (synthetic, UniProt P08047).
T17 chain: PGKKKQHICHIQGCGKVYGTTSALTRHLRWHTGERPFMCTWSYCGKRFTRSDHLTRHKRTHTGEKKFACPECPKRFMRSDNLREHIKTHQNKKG
The gist of the method:
as §1

In another series the target is ZFP SBS#1217 (synthetic). The gist of the method:
as §1

In a further series the target is ZFP SBS#1150 (synthetic). The gist of the method: as §1
For a further series, the target named is ZFP SBS#498 (synthetic, UniProt P08047). The gist of the method:
as §1

The target in a further series is ZFP SBS#1219 (synthetic). The gist of the method:
as §1

In another series the target is ZFP SBS#1221 (synthetic). The gist of the method: as §1
The target in another series is ZFP SBS#1220 (synthetic). The gist of the method: as §1
The next series addresses T18, ZFP SBS#1202 (synthetic, UniProt P08047).
T18 chain: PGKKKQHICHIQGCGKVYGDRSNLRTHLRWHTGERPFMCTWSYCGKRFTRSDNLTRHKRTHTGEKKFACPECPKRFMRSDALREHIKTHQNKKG
The gist of the method: as §1

The target in another series is ZFP SBS#937 (synthetic). The gist of the method:
as §1

A further series concerns the target ZFP SBS#938 (synthetic, UniProt P08047). The gist of the method: as §1
The target in another series is ZFP SBS#1215 (synthetic, UniProt P08047). The gist of the method:
as §1

For another series, the target named is ZFP SBS#1179 (synthetic). The gist of the method:
as §1

The next series addresses ZFP SBS#1117 (synthetic). The gist of the method:
as §1

The target of another series is ZFP SBS#1211 (synthetic). The gist of the method: as §1
Chain of ZFP SBS#1211 (synthetic) (chain, as listed by the source): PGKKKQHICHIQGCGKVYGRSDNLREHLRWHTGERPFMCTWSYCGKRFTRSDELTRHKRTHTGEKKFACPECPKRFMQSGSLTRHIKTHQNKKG

Chain of ZFP SBS#1204 (synthetic) (chain, as listed by the source): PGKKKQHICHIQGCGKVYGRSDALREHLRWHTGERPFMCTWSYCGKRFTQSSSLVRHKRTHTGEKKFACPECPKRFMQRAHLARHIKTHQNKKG
Chain of ZFP SBS#1117 (synthetic) (chain, as listed by the source): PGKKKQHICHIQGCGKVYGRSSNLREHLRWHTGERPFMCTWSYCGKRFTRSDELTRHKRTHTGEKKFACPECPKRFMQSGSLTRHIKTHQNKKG
Chain of ZFP SBS#1205 (synthetic) (chain, as listed by the source): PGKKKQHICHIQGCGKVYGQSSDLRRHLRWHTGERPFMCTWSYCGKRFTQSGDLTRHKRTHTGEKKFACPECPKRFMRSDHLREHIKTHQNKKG
Chain of ZFP SBS#483 (synthetic) (chain, as listed by the source): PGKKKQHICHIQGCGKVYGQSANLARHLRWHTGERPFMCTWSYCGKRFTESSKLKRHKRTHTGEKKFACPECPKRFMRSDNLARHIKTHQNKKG
Chain of ZFP SBS#1219 (synthetic) (chain, as listed by the source): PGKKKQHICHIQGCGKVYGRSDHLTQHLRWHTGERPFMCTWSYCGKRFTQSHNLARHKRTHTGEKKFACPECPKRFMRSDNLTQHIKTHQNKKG
Chain of ZFP SBS#937 (synthetic) (chain, as listed by the source): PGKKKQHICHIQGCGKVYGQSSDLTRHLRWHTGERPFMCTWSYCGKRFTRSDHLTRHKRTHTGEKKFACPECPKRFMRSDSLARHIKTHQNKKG
Chain of ZFP SBS#1215 (P08047 other isoform, or with tags, fused parts or gaps): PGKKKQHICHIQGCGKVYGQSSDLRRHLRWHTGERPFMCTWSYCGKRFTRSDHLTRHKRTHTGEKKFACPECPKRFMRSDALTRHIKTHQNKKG
Chain of ZFP SBS#1220 (synthetic) (chain, as listed by the source): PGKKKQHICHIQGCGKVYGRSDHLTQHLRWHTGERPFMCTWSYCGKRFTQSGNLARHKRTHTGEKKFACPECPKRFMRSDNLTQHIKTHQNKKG
Chain of ZFP SBS#1179 (synthetic) (chain, as listed by the source): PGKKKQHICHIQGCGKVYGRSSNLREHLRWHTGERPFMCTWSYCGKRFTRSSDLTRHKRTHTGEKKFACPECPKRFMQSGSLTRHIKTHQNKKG
Chain of ZFP SBS#1218 (synthetic) (chain, as listed by the source): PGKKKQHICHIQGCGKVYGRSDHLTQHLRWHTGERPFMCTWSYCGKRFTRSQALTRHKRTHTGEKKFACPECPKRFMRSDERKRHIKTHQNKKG
Chain of ZFP SBS#498 (P08047 other isoform, or with tags, fused parts or gaps): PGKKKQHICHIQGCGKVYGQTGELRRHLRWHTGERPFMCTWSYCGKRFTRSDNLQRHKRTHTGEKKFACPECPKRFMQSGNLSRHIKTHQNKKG
Chain of ZFP SBS#1221 (synthetic) (chain, as listed by the source): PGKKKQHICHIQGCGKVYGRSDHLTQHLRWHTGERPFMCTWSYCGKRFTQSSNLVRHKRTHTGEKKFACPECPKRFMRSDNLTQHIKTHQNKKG
Chain of ZFP SBS#938 (P08047 other isoform, or with tags, fused parts or gaps): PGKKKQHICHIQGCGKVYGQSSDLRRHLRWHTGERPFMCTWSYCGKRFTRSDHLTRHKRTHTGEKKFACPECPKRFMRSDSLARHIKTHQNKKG
Chain of ZFP SBS#1150 (synthetic) (chain, as listed by the source): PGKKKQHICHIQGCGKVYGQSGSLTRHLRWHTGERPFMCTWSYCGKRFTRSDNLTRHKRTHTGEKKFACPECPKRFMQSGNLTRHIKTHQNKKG
Chain of ZFP SBS#1206 (synthetic) (chain, as listed by the source): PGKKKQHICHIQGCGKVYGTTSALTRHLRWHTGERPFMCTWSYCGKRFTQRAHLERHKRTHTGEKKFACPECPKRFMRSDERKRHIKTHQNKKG
Chain of ZFP SBS#1217 (synthetic) (chain, as listed by the source): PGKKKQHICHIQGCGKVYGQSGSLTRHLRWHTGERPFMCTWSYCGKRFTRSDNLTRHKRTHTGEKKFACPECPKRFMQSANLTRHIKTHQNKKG

B1: GAAGAAGAG (dsDNA)
DNA 1: GAAGAAGAG
DNA 2: CTCTTCTTC
For the molecule B1, the Kd (usually a measure of binding affinity in units of concentration) with ZFP SBS#1213 worked out at 12300 pM.

B2: CGGGCAGCT (dsDNA)
DNA 1: CGGGCAGCT
DNA 2: AGCTGCCCG
With B2, the Kd with ZFP SBS#1104 stood at 80 pM; with ZFP SBS#1205, 900 pM.

B3: CAGGAGGGC (dsDNA)
DNA 1: CAGGAGGGC
DNA 2: GCCCTCCTG
B3: in the series with ZFP SBS#1222, the Kd is 155 pM.

B4: GCGGGAGTT (dsDNA)
DNA 1: GCGGGAGTT
DNA 2: AACTCCCGC
Turning to B4, the Kd was determined as 34 pM in the series with ZFP SBS#1206 and 60 pM with ZFP SBS#1107.

B5: CAGGCTGGA (dsDNA)
DNA 1: CAGGCTGGA
DNA 2: TCCAGCCTG
Take B5: the Kd with ZFP SBS#1108 was 7 pM; with ZFP SBS#1207 it was 450 pM.

B6: GGAGTACTG (dsDNA)
DNA 1: GGAGTACTG
DNA 2: CAGTACTCC
Take B6: the Kd in the series with ZFP SBS#1204 was determined as 4380 pM; with ZFP SBS#1203, 2940 pM.

B7: ATGGAGAAG (dsDNA)
DNA 1: ATGGAGAAG
DNA 2: CTTCTCCAT
Regarding B7, the dissociation constant (Kd) with ZFP SBS#1199 is 3430 pM; in the series with ZFP SBS#1201 it was 14800 pM; with ZFP SBS#1200, 16900 pM.

B8: GAGGGCGAAG (dsDNA)
DNA 1: GAGGGCGAAG
DNA 2: CTTCGCCCTC
With B8, the Kd with ZFP SBS#483 worked out at 130000 pM. This counts as sub-micromolar.

B9: GAGAAGGTG (dsDNA)
DNA 1: GAGAAGGTG
DNA 2: CACCTTCTC
In the case of B9, the Kd with ZFP SBS#1194 was 2190 pM; with ZFP SBS#1195 it was 2800 pM.

B10: GAAGGTGCC (dsDNA)
DNA 1: GAAGGTGCC
DNA 2: GGCACCTTC
Consider B10, for which binding in the series with ZFP SBS#1197 was put at a Kd of 14800 pM.

B11: CCGGAAGCG (dsDNA)
DNA 1: CCGGAAGCG
DNA 2: CGCTTCCGG
In the case of B11, the Kd with ZFP SBS#1209 worked out at 19300 pM; with ZFP SBS#1116, 12300 pM.

B12: GCGGTGAGG (dsDNA)
DNA 1: GCGGTGAGG
DNA 2: CCTCACCGC
B12: in the series with ZFP SBS#1218, binding was characterised by a dissociation constant (Kd) of 460 pM.

B13: ATGGGAGTT (dsDNA)
DNA 1: ATGGGAGTT
DNA 2: AACTCCCAT
In the case of B13, the Kd with ZFP SBS#1101 stood at 65 pM; with ZFP SBS#1214 it was 460 pM.

B14: CAGGGGGTT (dsDNA)
DNA 1: CAGGGGGTT
DNA 2: AACCCCCTG
For the molecule B14, the Kd with ZFP SBS#1127 stood at 100 pM; with ZFP SBS#1212, 50 pM.

B15: GAAGAGGCA (dsDNA)
DNA 1: GAAGAGGCA
DNA 2: TGCCTCTTC
As for B15, the results for the Kd with ZFP SBS#1217, with ZFP SBS#1150 and with ZFP SBS#498 were 4 pM, 4 pM and 30000 pM, respectively.

B16: AAGGAAAGG (dsDNA)
DNA 1: AAGGAAAGG
DNA 2: CCTTTCCTT
In the case of B16, the dissociation constant (Kd) with ZFP SBS#1219 came out at 680 pM; with ZFP SBS#1221, 1400 pM; with ZFP SBS#1220, 175 pM.

B17: CTGGAGTAC (dsDNA)
DNA 1: CTGGAGTAC
DNA 2: GTACTCCAG
With B17, the Kd with ZFP SBS#1202 was found to be 2830 pM.

B18: GTGGGGGCT (dsDNA)
DNA 1: GTGGGGGCT
DNA 2: AGCCCCCAC
Regarding B18, the figures for the equilibrium dissociation constant (Kd) in the series with ZFP SBS#937, with ZFP SBS#938 and with ZFP SBS#1215 were 30 pM, 49 pM and 3 pM, respectively.

B19: GCAGCGCAG (dsDNA)
DNA 1: GCAGCGCAG
DNA 2: CTGCGCTGC
Take B19: the Kd with ZFP SBS#1179 is 2740 pM; with ZFP SBS#1117 it was 2850 pM; in the series with ZFP SBS#1211, 6500 pM.
